Results on seven molecules are retold here after patent US20230322953A1 (HARBOUR BIOMED SHANGHAI, published 2023).

First the molecules themselves.
B1: PR001995 (bispecific antibody, IgG1)
chain 1: EVQLLESGGGLVQPGGSLRLSCAASGFTFNTYAMNWVRQAPGKGLEWVSRIRSKYNNYATYYADSVKDRFTISRDDSKSTLYLQMNSLRAEDTAVYYCVRHGNFGNSYVSWFAYWGQGTLVTVSSASTKGPSVFPLAPSSKSTSGGTAALGCLVKDYFPEPVTVSWNSGALTSGVHTFPAVLQSSGLYSLSSVVTVPSSSLGTQTYICNVNHKPSNTKVDKKVEPKSC
chain 2: QAVVTQEPSLTVSPGGTVTLTCRSSTGAVTTSNYANWVQQKPGQAPRGLIGGTNKRAPWTPARFSGSLLGDKAALTLLGAQPEDEAEYFCALWYSNLWVFGGGTKLTVLGQPKAAPSVTLFPPSSEELQANKATLVCLISDFYPGAVTVAWKADSSPVKAGVETTTPSKQSNNKYAASSYLSLTPEQWKSHRSYSCQVTHEGSTVEKTVAPTECSDKTHTCPPCPAPEAAGGPSVFLFPPKPKDTLMISRTPEVTCVVVDVSHEDPEVKFNWYVDGVEVHNAKTKPREEQYNSTYRVVSVLTVLHQDWLNGKEYKCKVSNKALGAPIEKTISKAKGQPREPQVYTLPPCREEMTKNQVSLWCLVKGFYPSDIAVEWESNGQPENNYKTTPPVLDSDGSFFLYSKLTVDKSRWQQGNVFSCSVMHEALHNHYTQKSLSLSPGK
chain 3: EVQLLESGGGLVQPGGSLRLSCAASGFTFSSYAMIWVRQAPGKGLEWVSGISESGGSTYYADSVKGRFTISRDNSKNTLYLQMNSLRAEDTAVYFCVKDLDDILTGYYKDYWGQGTLVTVSSASEPKSSDKTHTCPPCPAPEAAGGPSVFLFPPKPKDTLMISRTPEVTCVVVDVSHEDPEVKFNWYVDGVEVHNAKTKPREEQYNSTYRVVSVLTVLHQDWLNGKEYKCKVSNKALGAPIEKTISKAKGQPREPQVCTLPPSREEMTKNQVSLSCAVKGFYPSDIAVEWESNGQPENNYKTTPPVLDSDGSFFLVSKLTVDKSRWQQGNVFSCSVMHEALHNHYTQKSLSLSPGK
notes: CD3 Fab from PR000511, BCMA VH from PR000940; IgG1 knob/hole, AAG
B2: PR001991 (bispecific antibody, human IgG1, kappa, L234A L235A)
chain 1: EVQLLESGGGLVQPGGSLRLSCAASGFTFNTYAMNWVRQAPGKGLEWVSRIRSKYNNYATYYADSVKDRFTISRDDSKSTLYLQMNSLRAEDTAVYYCVRHGNFGNSYVSWFAYWGQGTLVTVSSRTVAAPSVFIFPPSDEQLKSGTASVVCLLNNFYPREAKVQWKVDNALQSGNSQESVTEQDSKDSTYSLSSTLTLSKADYEKHKVYACEVTHQGLSSPVTKSFNRGEC
chain 2: QAVVTQEPSLTVSPGGTVTLTCRSSTGAVTTSNYANWVQQKPGQAPRGLIGGTNKRAPWTPARFSGSLLGDKAALTLLGAQPEDEAEYFCALWYSNLWVFGGGTKLTVLSSASTKGPSVFPLAPSSKSTSGGTAALGCLVKDYFPEPVTVSWNSGALTSGVHTFPAVLQSSGLYSLSSVVTVPSSSLGTQTYICNVNHKPSNTKVDKKVEPKSCDKTHTCPPCPAPEAAGGPSVFLFPPKPKDTLMISRTPEVTCVVVDVSHEDPEVKFNWYVDGVEVHNAKTKPREEQYNSTYRVVSVLTVLHQDWLNGKEYKCKVSNKALGAPIEKTISKAKGQPREPQVYTLPPCREEMTKNQVSLWCLVKGFYPSDIAVEWESNGQPENNYKTTPPVLDSDGSFFLYSKLTVDKSRWQQGNVFSCSVMHEALHNHYTQKSLSLSPGK
chain 3: B1 chain 3
notes: as for B1
B3: PR001988 (bispecific antibody, human IgG1, lambda, L234A L235A)
light: QAVVTQEPSLTVSPGGTVTLTCRSSTGAVTTSNYANWVQQKPGQAPRGLIGGTNKRAPWTPARFSGSLLGDKAALTLLGAQPEDEAEYFCALWYSNLWVFGGGTKLTVLGQPKAAPSVTLFPPSSEELQANKATLVCLISDFYPGAVTVAWKADSSPVKAGVETTTPSKQSNNKYAASSYLSLTPEQWKSHRSYSCQVTHEGSTVEKTVAPTECS
heavy: EVQLLESGGGLVQPGGSLRLSCAASGFTFNTYAMNWVRQAPGKGLEWVSRIRSKYNNYATYYADSVKDRFTISRDDSKSTLYLQMNSLRAEDTAVYYCVRHGNFGNSYVSWFAYWGQGTLVTVSSASTKGPSVFPLAPSSKSTSGGTAALGCLVKDYFPEPVTVSWNSGALTSGVHTFPAVLQSSGLYSLSSVVTVPSSSLGTQTYICNVNHKPSNTKVDKKVEPKSCDKTHTCPPCPAPEAAGGPSVFLFPPKPKDTLMISRTPEVTCVVVDVSHEDPEVKFNWYVDGVEVHNAKTKPREEQYNSTYRVVSVLTVLHQDWLNGKEYKCKVSNKALGAPIEKTISKAKGQPREPQVYTLPPCREEMTKNQVSLWCLVKGFYPSDIAVEWESNGQPENNYKTTPPVLDSDGSFFLYSKLTVDKSRWQQGNVFSCSVMHEALHNHYTQKSLSLSPGK
chain: EVQLVETGGGLIQPGGSLRLSCAASGFPVSSNYMSWVRQAPGKGLEWVSVIFSGGRTYYADSVKGRFTISRDNSKNTLYLQMNSLRAEDTAVYYCARRNWIDGRDAFDIWGQGTMVTVSSASEPKSSDKTHTCPPCPAPEAAGGPSVFLFPPKPKDTLMISRTPEVTCVVVDVSHEDPEVKFNWYVDGVEVHNAKTKPREEQYNSTYRVVSVLTVLHQDWLNGKEYKCKVSNKALGAPIEKTISKAKGQPREPQVCTLPPSREEMTKNQVSLSCAVKGFYPSDIAVEWESNGQPENNYKTTPPVLDSDGSFFLVSKLTVDKSRWQQGNVFSCSVMHEALHNHYTQKSLSLSPGK
notes: Structure 11 (Fab-Fc-VH): CD3 Fab from PR000511, BCMA VH from PR000943; human IgG1 knob/hole, AAG
B4: PR001992 (bispecific antibody, human IgG1, kappa, L234A L235A)
chain 1: B2 chain 1
chain 2: B2 chain 2
chain 3: B3 chain
notes: Structure 12 (Fab(cross VH/VL)-Fc-VH): CD3 Fab from PR000511, BCMA VH from PR000943; IgG1 knob/hole, AAG
B5: PR001989 (bispecific antibody, human IgG1, lambda, L234A L235A)
light: B3 light
heavy: B3 heavy
chain: B3 chain with P28T, S35T, R56S, N99I, W100A, I101V, D102A, R104H, A106V
notes: Structure 11 (Fab-Fc-VH): CD3 Fab from PR000511, BCMA VH from PR001035; human IgG1 knob/hole, AAG
B6: PR001993 (bispecific antibody, human IgG1, kappa, L234A L235A)
chain 1: B2 chain 1
chain 2: B2 chain 2
chain 3: B3 chain with P28T, S35T, R56S, N99I, W100A, I101V, D102A, R104H, A106V
notes: Structure 12 (Fab(cross VH/VL)-Fc-VH): CD3 Fab from PR000511, BCMA VH from PR001035; IgG1 knob/hole, AAG
B7: PR001994 (bispecific antibody, human IgG1, kappa, L234A L235A)
chain 1: B2 chain 1
chain 2: B2 chain 2
chain 3: EVQLVETGGGLIQPGGSLRLSCAASGFTVSDNYMTWVRQAPGKGLEWVSVIFSGGNTYYADSVKGRFTISRDNAKNTLYLQMNSLRAEDTALYYCARRNYDDTRGTDVFDIWGQGTMVTVSSASEPKSSDKTHTCPPCPAPEAAGGPSVFLFPPKPKDTLMISRTPEVTCVVVDVSHEDPEVKFNWYVDGVEVHNAKTKPREEQYNSTYRVVSVLTVLHQDWLNGKEYKCKVSNKALGAPIEKTISKAKGQPREPQVCTLPPSREEMTKNQVSLSCAVKGFYPSDIAVEWESNGQPENNYKTTPPVLDSDGSFFLVSKLTVDKSRWQQGNVFSCSVMHEALHNHYTQKSLSLSPGK
notes: Structure 12 (Fab(cross VH/VL)-Fc-VH): CD3 Fab from PR000511, BCMA VH from PR001046; IgG1 knob/hole, AAG

Numbering of substitutions follows the chain as printed.

The target of one assay is T1, human CD3 (TCR/CD3 complex) on human T cells (human, UniProt P07766 23-207).
T1 construct: whole, on cells
T1 sequence (P07766 23-207, one chain of several): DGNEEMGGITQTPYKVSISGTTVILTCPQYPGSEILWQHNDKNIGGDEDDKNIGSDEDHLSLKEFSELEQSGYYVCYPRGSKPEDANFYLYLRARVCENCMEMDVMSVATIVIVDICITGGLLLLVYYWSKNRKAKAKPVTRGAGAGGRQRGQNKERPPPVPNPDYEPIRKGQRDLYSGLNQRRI
Kind of assay: flow cytometry (FACS) on human T cells, Experiment 2. For orientation: In flow cytometry, cells or beads pass a laser one at a time.
Method: (§1) The binding ability of the antibody molecules to human or cynomolgus monkey T cells was tested by flow cytometry FACS. […] The T cell density was adjusted to 1×10⁶ cells/mL. […] The cells were incubated at 4° C. for 1 h away from light. Then, the cells in each well were rinsed twice with 100 μL of pre-cooled PBS, and centrifuged at 500 g at 4° C. for 5 min, and then the supernatant was discarded. […] The cells in each well were rinsed twice with 100 μL of pre-cooled PBS, and centrifuged at 500 g at 4° C. for 5 min, and then the supernatant was discarded. Finally, the cells in each well were resuspended in 200 μL of pre-cooled PBS. Fluorescence signal values were read using a BD FACS CANTOII flow cytometer or an ACEA NovoCyte flow cytometer, and the data were processed and analyzed using FlowJo v10 (FlowJo, LLC) software. The data were processed and analyzed by plotting using GraphPad Prism 8 software, and binding curves of the antibodies to target cells, EC₅₀ values and other parameters were obtained through four-parameter nonlinear fitting.
For B1, the “Maximum MFI” value amounted to 2920 MFI.

Another assay addresses T1, human CD3 (TCR/CD3 complex) on human T …. Kind of assay: flow cytometry (FACS) on human T cells, Experiment 1.
Method: as §1
With B2, the “Maximum MFI” value is 3240 MFI.

For B3, the “Maximum MFI” value came out at 5800 MFI.

For the molecule B4, the “Maximum MFI” value is 2240 MFI.

For the molecule B5, the “Maximum MFI” value is 6680 MFI.

For the molecule B6, the “Maximum MFI” value came to 4780 MFI.

Consider B7, for which the “Maximum MFI” value was determined as 3380 MFI.
